The values below are quoted from earlier work in article PMC5325457.

As a reminder, the Kd is the concentration at which binding is half-saturated.

This series addresses Mms2 (Homo sapiens) (UniProt Q15819).
UniProt Q15819, sequence (Q15819 2-145): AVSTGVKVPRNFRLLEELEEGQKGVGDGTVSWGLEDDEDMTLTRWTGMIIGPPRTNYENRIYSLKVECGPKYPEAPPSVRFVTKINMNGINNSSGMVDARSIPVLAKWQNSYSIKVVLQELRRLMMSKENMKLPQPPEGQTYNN

With Ubc13 (from UniProt P61088), the Kd was 49 nM.
